These results are taken from paper PMC6468292.

The target in data set [1] is T1, FOXC2-DBD (human, UniProt Q99958 72-171).
T1 sequence: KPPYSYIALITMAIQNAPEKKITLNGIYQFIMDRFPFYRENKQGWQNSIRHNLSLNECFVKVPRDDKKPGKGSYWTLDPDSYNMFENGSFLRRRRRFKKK
The experiment in a line: crystal structure.

Data set [2] deals with T1, FOXC2-DBD. In words: ITC.
The target of data set [3] is T2, FOXM1-DBD (human, UniProt Q08050 222-360).
T2 sequence: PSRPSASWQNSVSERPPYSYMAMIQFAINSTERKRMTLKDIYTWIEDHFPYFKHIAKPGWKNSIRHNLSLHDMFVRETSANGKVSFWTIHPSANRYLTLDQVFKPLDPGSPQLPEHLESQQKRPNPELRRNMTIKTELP
The experiment in a line: ITC.

Data set [4] concerns the target T3, FOXA2-DBD (human, UniProt Q9Y261-2 163-264).
T3 sequence: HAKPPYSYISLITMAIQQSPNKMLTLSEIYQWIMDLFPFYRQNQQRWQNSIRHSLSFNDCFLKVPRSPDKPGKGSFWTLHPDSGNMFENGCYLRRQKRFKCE
The experiment in a line: ITC. (In ITC the heat of successive injections is recorded.)

The target in data set [5] is T1, FOXC2-DBD. In words: EMSA. Background: Mobility shift assays separate free from complexed probe on a gel.

B1: DBE2 (GTAAACA) (dsDNA)
DNA 1: CAAAATGTAAACAAGA
DNA 2: TCTTGTTTACATTTTG
With B1, the binding result in data set [1] was “binds”.

B2: GTACACA site (ITC) (dsDNA)
DNA 1: TGCAAAATGTACACAAGACT
DNA 2: AGTCTTGTGTACATTTTGCA
The term Kd denotes the equilibrium constant for the complex coming apart. Lower therefore signals tighter binding. Turning to B2, the figures for the equilibrium dissociation constant (Kd) in data set [2], in data set [3] and in data set [4] were 2220 nM, 8300 nM and 990 nM, respectively.

B3: DNA3 (GTACACA, palindromic) (dsDNA)
DNA 1: ATTTGTGTACACAAAT
DNA 2: ATTTGTGTACACAAAT
For B3, the binding result in data set [5] is “binds”.

B4: ACAAATA site (DNA4, ITC) (dsDNA)
DNA 1: TGCAAAATACAAATAAGACT
DNA 2: AGTCTTATTTGTATTTTGCA
On to B4, for which the Kd in data set [3] worked out at 2070 nM; in data set [4], 7540 nM.
